{"source": "paper PMC8866119", "about": "(Nature, 2021)", "binders": {"B1": {"name": "BD55-1294 (antibody, V domains shown)", "VH": "QLHLQESGPGLVKPSETLSLTCTVSGGSIFSSTYYWGWIRQTPGKGLEWIGSFYNGGSTYYNPSLESRVTISEDTSKNQFSLKLSSVTAADTAVYYCARDLSETASYHNWFDPWGQGTLVTVSS", "VL": "DIQLTQSPSFLSASVGDRITITCRASQAISNYLAWYQQKPGKAPKLLIYGASTLHSGVPSRFSGSHSGSEFTLTISGLQPEDFATYYCQQLNSFGPGTKVDIK"}, "B2": {"name": "BD-796 (antibody, V domains shown)", "VH": "QVQLVQSGAEVKKPGSSVKVSCKASGGTFSSYAINWMRQAPGQGLEWMGGIIPILGIPNSAQKFQGRVTITADKSTSTAYMELSSLRSEDTAVYYCARMYNYDSSGLEADAFDIWGQGTMVTVSS", "VL": "QSVLTQPPSVSGAPGQRVTISCTGSSSNIGAGYDVHWYQQLPGTAPKLLIYGNSNRPSGVPDRFSGSKSGTSASLAITGLQAEDEADYYCQSYDSSLSGVVFGGGTKLTVL"}, "B3": {"name": "BD-913 (antibody, V domains shown)", "VH": "QVQLVQSGAEVKKPGSSVKVSCKASGGTFSTYAISWVRQAPGQGLEWMGGIIPIVGIANDAQKFQGRVTITADKSTSTAYMELSSLRSEDTAVFYCARAQRKQWPVEDAYDIWGQGTMVTVSS", "VL": "B2 VL with V100S, L108V"}, "B4": {"name": "BD55-3525 (antibody, V domains shown)", "VH": "EVQVVESGGGLVKPGGSLRLSCAGSGFTFNYAWMNWVRQAPGKGLEWVGRIKSETGGGTTDYAAPVRGRFTISRDDSKDTVFLQMNSLKTEDTAVYYCTTEATVTSWDAFDVWGQGTLVTVST", "VL": "QSVLTQPPSASGTSGQRVTISCSGSSSNIGSNTVNWYQQIPRRAPKLLIYRNNQRPSGVPDRFSASKSGTSASLAISGLHSEDEADYYCAAWDDRLNGFVFGTGTKVTVL"}, "B5": {"name": "BD-923 (antibody, V domains shown)", "VH": "EVLLVESGGGLVQPGRSLRLSCTASGFTFEDYAMHWVRQAPGKGLEWVSGMSWNSGTIGYADSVRGRFIISRDNAKNSLYLQMNSLRAEDTALYYCGKDRGFGESLYYVMDVWGQGATVTVSS", "VL": "QSALTQPASVSGSPGQSITISCTGTSSDVGVYNYVSWYQQHPGKAPKLMIYNVSDRPSGVSNRFSGSKSGNTASLTISGLQAEDEADYYCSSYTSSSIVIFGGGTKLTVL"}, "B6": {"name": "BD-815 (antibody, V domains shown)", "VH": "EVQLVQSGPEVKKPGESLKISCKASGYSFISNWIGWVRQMPGKGLEWMGIIYPGDSDTRYSPSFQGQVTISADRSITTAYLQWSSLKASDTAIYYCARLGSSWYWVDYWGQGTLVTVSS", "VL": "SSELTQDPAVSVALGQTVRITCQGDSLRSYHASWYQQKPGQAPILVIYDKNNRPSGIPDRFSGSGSGNTASLTITGAQAEDEADYYCNSRDSSGDHLVFGTGTKVTVL"}, "B7": {"name": "BD-907 (antibody, V domains shown)", "VH": "QVQLVQSGSELKKPGASVKVSCKASGYTFSSYYLNWVRQAPGQGLEWMGWIDTNTGNPTYAQAFTGRFVFSLDTSVSTAYLQIGSLQANDTAVYYCAREGGGWSGLYYYFGMDVWGQGTTVTVSS", "VL": "EIVLTQSPGTLSLSPGERATVSCRASQSIGSNYLAWYQQKPGQAPRLLIYGASSRATGIPDRFSGSGSGTDFTLTISRLEPEDFAVYYCQQYGSSPPYTFGQGTKLEIK"}, "B8": {"name": "C581 (antibody, V domains shown)", "VH": "EVQLVQSGAEVKKPGESLKISCKGSGYRFTSYWIAWVRQMPGKGLEWMGIIYPGDSDTRYSPSFQGQVTISADQSISTAYLQWSSLKASDTAMYYCARGGPPGGVKLELTDYWGQGALVTVSS", "VL": "not shown"}, "B9": {"name": "DH1044 (antibody, V domains shown)", "VH": "QVQLVESGGGVVQPGRSLRLSCAASGFTFSSYGMHWVRQAPGKGLEWVAVISFDGSNKYYVDSVKGRFTISRDNSKNTLYLQMNSLRAEDTAVYYCAKDMHNDYGDYVSYYFYYGMDVWGQGTTVTVSS", "VL": "QSVLTQPPSVSAAPGQKVIISCSGSSSNIGNNYVSWYQQLPGTAPKLLIYENNKRPSGIPDRFSGSKSGTSATLGITGLQTGDEADYYCGTWDSSLRTDVFGGGTKLIVL"}, "B10": {"name": "BD55-1831 (antibody, V domains shown)", "VH": "QVQLQESGPGLVKPSQTLSLTCTVSGGSISNGDYYWSWIRQPPGKGLEWIGYIHNSGSTYKKLSLRSRLTISVDTSKNQFSLKLSSVTAADTAVYYCARTASPSGAWYFDFWGRGTLVTVSS", "VL": "SYVLTQPPSVSVAPGQTARITCGGNDIGSKNVHWYQQKPGQAPLLVVYDDTDRPSGIPERFSGSNSGNPATLTISRVEAGDEADYYCQVWDSSFDHVIFGGGTKLTVL"}, "B11": {"name": "COV2-2389 (antibody, V domains shown)", "VH": "EVQLVESGGGLVQPGRSLRLSCAASGFTFDDYAMHWVRQAPGKGLEWVSGISWNSGTIGYADSVKGRFIISRDNAKNSLYLQMNSLRPEDTALYYCAKDIIRQGEDGMDVWGQGTTVTVSS", "VL": "DIQMTQSPSSLSASVGDRVTITCRASQNIASYLNWYQQKPGKAPKLLIYAASSLQSGVPSRFSGSGSGTDFTLTISSLQPEEFATYYCQQSYSTPWTFGQGTKVEIK"}, "B12": {"name": "BD-713 (antibody, V domains shown)", "VH": "EVQLVESGGGLVQPGRSLRLSCAASGFTFDDYAMHWVRQAPGKGLEWVSGMSWNSGTIGYADSVKGRFTIIRDNAKNSLYLQMIRLRAEDTALYYCAKASPRLDTAMAPFDYWGQGTLVTVSS", "VL": "SYVLTQPPSVSVAPGKTARITCGGNNIGSKSVHWYQQKPGQAPALVIYYDNDRPSGLPERFSGSNSGNTATLTISRVEAGDEADYYCQVWHSSSDSLVFGGGTKLTVL"}, "B13": {"name": "DH1193 (antibody, V domains shown)", "VH": "QVQLVESGGGVVQPGRSLRLSCAASGFTFSNYGMHWVRQAPGKGLEWVTVISYDGSNKYYADSVKGRFTISRDNSKNTLYLQMNSLRAEDTAVYYCAKVLTWSIHPEDYYYGMDVWGQGTTVTVSS", "VL": "QSALTQPPSASGSPGQSVTISCTGTSSDVGGYNYVSWYQQHPGKAPKLMIYEVSQRPSGVPDRFSGSKSGNTASLTVSGLQAEDEADYYCSSYAGSNIGVFGGGTTLTVL"}, "B14": {"name": "BD55-4325 (antibody, V domains shown)", "VH": "QAQLVQSGAEVKKPGASVKVSCEAIGYAFKTYGISWVRQAPGQGLEWVGWISGHDGTTNYAQKFQGRVTLTTDTSTNTAFLEVKSLRSDDTAVFYCARDKAYSGYDYWSTIFDYWGQGTLVTVST", "VL": "SYVLTQPPSVSVAPGKTATITCGGNNIRSKSVQWFQQRPGQAPILVLYYDTDRPSGIPERFSGSNSGNTATLTISRVEAGDEADYYCQVWDSTTDHYLFGTGTKVTVL"}, "B15": {"name": "C556 (antibody, V domains shown)", "VH": "QVQLVQSGAEVKKPGASVKVSCKASGYTFTYYYMHWVRQAPGQGLEWMGIINPSGGSTSYAQKFQGRVTMTRDTSTSTVYMELSSLRSEDTAVYYCARPLLPGETGSLNRLDYWGQGTLVTVSS", "VL": "not shown"}, "B16": {"name": "C576 (antibody, V domains shown)", "VH": "QVQLVQSGAEVKKPGSSVKVSCKASGGTFSIYAISWVRQAPGQGLEWMGGIIPILGTANYAQKFQGRVTITADESTSTAYMELSSLRSEDTAVYYCASFHVAYGDYIPFDYWGQGTLVTVSS", "VL": "not shown"}}, "note": "Changes are numbered by the printed parent chain.", "data": [{"biological_target": "SARS-CoV-2 Omicron (B.1.1.529) RBD (SARS-CoV-2 Omicron B.1.1.529 (BA.1), strain)", "values": [{"binder": "B1", "binding result": "binds"}, {"binder": "B2", "binding result": "binds"}, {"binder": "B3", "binding result": "binds"}, {"binder": "B4", "binding result": "binds"}, {"binder": "B5", "binding result": "binds"}, {"binder": "B6", "binding result": "binds"}, {"binder": "B7", "binding result": "binds"}, {"binder": "B8", "binding result": "binds"}, {"binder": "B9", "binding result": "binds"}, {"binder": "B10", "binding result": "binds"}, {"binder": "B11", "binding result": "binds"}, {"binder": "B12", "binding result": "binds"}, {"binder": "B13", "binding result": "binds"}, {"binder": "B14", "binding result": "binds"}, {"binder": "B15", "binding result": "binds"}, {"binder": "B16", "binding result": "binds"}]}]}
